In patent publication US20040167074A1, “Therapeutic applications of mFLINT polypeptides” (priority 1998, published 2004):
Values joined by “and” are separate entries in the source; they are usually repeats but may differ in a detail not shown here. Equal entries are not always repeated. “Also recorded” adds a separate entry of the source.

What was measured:
TNFβ = target: T1, TNFβ (Homo sapiens, UniProt P01374); test: Dot blot binding of mFLINT to TNF ligands
T1 construct: purchased
T1 sequence (P01374 35-205): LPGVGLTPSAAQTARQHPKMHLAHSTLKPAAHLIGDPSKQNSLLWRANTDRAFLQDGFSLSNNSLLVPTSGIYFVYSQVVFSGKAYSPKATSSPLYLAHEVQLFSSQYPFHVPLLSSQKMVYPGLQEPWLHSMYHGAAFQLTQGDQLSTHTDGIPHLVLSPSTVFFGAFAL

CD40 L = target: T2, CD40 L (Homo sapiens, UniProt P29965); test: Dot blot binding of mFLINT to TNF ligands
T2 construct: purchased
T2 sequence (P29965 113-261 limits assumed): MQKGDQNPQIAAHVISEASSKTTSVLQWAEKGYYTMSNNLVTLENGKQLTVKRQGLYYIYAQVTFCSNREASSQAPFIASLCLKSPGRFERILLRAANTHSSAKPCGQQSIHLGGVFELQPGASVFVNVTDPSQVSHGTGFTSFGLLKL

Jurkat cells [1] = test: anti-CD3 induced Jurkat apoptosis (Annexin V/PI, FACS); format: cell-based; parameters: Cell apoptosis (Annexin V, FACS): unit not given here; settings: for Cell apoptosis (positive staining with Annexin V): Example 12; for Cell apoptosis (Annexin V, FACS): Example 14
Experimental: Non-tissue treated 24 well plates (Decton Dickinson, Mansfield, Mass.) were coated with 0.5 ml of 1 ug/ml anti-CD3 (Farmingen) in PBS for 90 min at 37° C. The plate was washed once with PBS.
Cells were incubated overnight at 37° C. incubator and cells were then stained by Annexin V and PI staining. Apotosis was analyzed by flow cytometer (FACS). Cell apoptosis was indicated by positive staining with Annexin V.

Jurkat cells [2] = test: Recombinant FasL induced Jurkat cell apoptosis (Annexin V/PI, FACS); format: cell-based; settings: Jurkat + FasL 200 ng/ml + 1 ug test agent
Experimental: One milliliter of 1×10^6 cell/ml was added into each well of 24 well tissue culture plate and treated with following reagents: soluble Fas L (200 ng), Fas L plus 1 ug mFLINT, Fas L plus 1 ug OPG2-Fc, Trail (200 ng), Trail plus 1 ug mFLINT. Cells were incubated overnight at 37° C. and then stained with Annexin V and PI.

[3] = test system: intact hippocampal neurons along the dorsal CA1 regions; test: Gerbil cerebral ischemia (carotid occlusion), hippocampal CA1 neuron count; format: in vivo; settings: 5 min carotid occlusion; 5 ul bolus 0.63 mg/ml then 1 ul/h for 3 days intracerebral; day 5; p-0.0039 t-Test, p=0.0037 Wilcoxon
Experimental: Adult male gerbils (70 to 80 g body weight, Charles River Laboratories, Wilmington, Mass.) were anesthetized by i.p. injections of sodium pentobarbital (Nembutal) 40 mg/kg, and additional i.p. injections of 10 mg/kg when necessary to maintain a surgical plane of anesthesia. Animals were placed on a thermostatically controlled heating blanket to maintain body temperature at 37° C. The ventral surface of the neck was exposed, the fur shaved, and the skin cleaned with 2% iodine solution.
After the pre-surgical preparation, a midline incision was made, and the skin opened. The sternohyoid muscles were divided to exposed and isolate the common carotid arteries (CCA) for clamping. Sterilized aneurysm clips (blade with 0.15 mm, closing force ^˜10 gm) was secured by means of a sterilized clip applier on both left and right CCA for 5 minutes. The clamps were then removed and the patency of the arteries checked visually. The wound in the neck was closed by surgical suture. […]
On the fifth day of survival; the gerbils were sacrificed in a CO2 chamber. […] After staining with Cresyl violet, the sections were viewed under a microscope at 40× magnification for cell counter quantification of the intact hippocampal neurons along the dorsal CA1 regions (0.5 mm in length) of both hemispheres. Data were analyzed by Student t-Test and the Wilcoxon ranking test.

B16 melanoma cells = test: B16 melanoma subcutaneous tumor growth; format: in vivo; settings: days 4-13
Experimental: Tumor response was monitored by tumor volume measurements as determined by caliper measurements of two dimensions of the tumors on days 4, 8, 11, 17, 21, 25, 30 and 34. Tumor volume was calculated as a hemi-ellipsoid. The animals were weighed on the same schedule described above.

bone marrow cells = test: Viable cell count of bone marrow cells from 5-FU treated mice after cytokine expansion; format: cell-based, mouse; settings: FIG. 10; 3 days with SCF and IL-6; mFLINT 1 ug/ml, anti-FasL 1 ug/ml, FasL 0.15 ug/ml; control 3,300
Source text: Following a 3 day in vitro expansion period with cytokines, viable cells are counted and used to set up a CFU assay. If mFLINT or anti-FasL antibody protects progenitor cells from apoptosis, one would expect a greater number of colonies in these groups for the CFU assay. […] The values were: control cells: 3,300; FasL-treated cells: 3,000; anti-FasL-treated cells: 4,200; mFLINT-treated cells: 4,900.

B1: mFLINT: mature FLINT without leader peptide (FIG. 3), soluble TNFR superfamily member, made according to Examples 8 and 9 (protein)
chain: VAETPTYPWRDAETGERLVCAQCPPGTFVQRPCRRDSPTTCGPCPPRHYTQFWNYLERCRYCNVLCGEREEEARACHATHNRACRCRTGFFAHAGFCLEHASCPPGAGVIAPGTPSQNTQCQPCPPGTFSASSSSSEQCQPHRNCTALGLALNVPGSSSHDTLCTSCTGFPLSTRVPGAEECERAVIDFVAFQDISIKRLQRLLQALEAPEGWGPTPRAGRAALQLKLRRRLTELLGAQDGALLVRLLQALRVARMPGLERSVRERFLPVH
modifications: glycosylated
binding in dot blot (TNFβ): No appreciable binding | binding in dot blot (CD40 L): No appreciable binding | Cell apoptosis (positive staining with Annexin V) (Jurkat cells [1]; Jurkat + antiCD3 + 1 ug test agent): 27.77 | Cell apoptosis (positive staining with Annexin V) (Jurkat cells [1]; Jurkat + antiCD3 + 2 ug test agent): 18.67 | Cell apoptosis (Annexin V, FACS) (Jurkat cells [1]; anti CD3 + 15.625 ng): 28.80 | Cell apoptosis (Annexin V, FACS) (Jurkat cells [1]; anti CD3 + 31.25 ng): 28.21 | Cell apoptosis (Annexin V, FACS) (Jurkat cells [1]; anti CD3 + 62.5 ng): 28.99 | Cell apoptosis (Annexin V, FACS) (Jurkat cells [1]; anti CD3 + 125 ng): 29.4 | Cell apoptosis (Annexin V, FACS) (Jurkat cells [1]; anti CD3 + 250 ng): 28.93 | Cell apoptosis (Annexin V, FACS) (Jurkat cells [1]; anti CD3 + 500 ng): 27.48 | Cell apoptosis (Annexin V, FACS) (Jurkat cells [1]; anti CD3 + 1000 ng): 24.29 | Cell apoptosis (Annexin V, FACS) (Jurkat cells [1]; anti CD3 + 2000 ng): 17.02 | Cell apoptosis (Annexin V, FACS) (Jurkat cells [1]; anti CD3 + 3000 ng): 14.68 | Cell apoptosis (Annexin V and PI, FACS) (Jurkat cells [2]): 3.32 and 4.6 | neuronal survival (intact hippocampal CA1 neurons) [3]: significant effect on neuronal survival compared to vehicle; also recorded: indistinguishable from normal controls | day tumors reached a volume of 500 mm^3 (B16 melanoma cells; 50 μg/injection iv once daily): 19.3 ± 0.3 days | day tumors reached a volume of 1000 mm^3 (B16 melanoma cells; 50 μg/injection iv once daily): 23.0 ± 0.4 days | tumor growth delay (B16 melanoma cells; 50 μg/injection iv once daily): 1.8 days | tumor volume after 20 days (B16 melanoma cells; FIG. 8, 50 μg/injection iv, control approximately 1000 mm^3): approximately 730 mm^3 | bone marrow cell count (bone marrow cells): 4,900 ×1000
